{
  "source": "patent US5780025A",
  "about": "“Compositions and methods for the synthesis and assay of enkephalinase” (Genentech, Inc., priority 1993, dated 1998)",
  "key": {"[1]": {"molecular_target": "T1, ^3 H-(DAla^2, Leu^5)enkephalin (Rattus norvegicus, UniProt P07861)", "T1 construct": "Rat kidney enkephalinase was purified to apparent homogeneity; from tissue; host or cells: rat kidney (male rats, membrane fraction, Triton X-100 solubilised)", "T1 sequence (P07861 1-750)": "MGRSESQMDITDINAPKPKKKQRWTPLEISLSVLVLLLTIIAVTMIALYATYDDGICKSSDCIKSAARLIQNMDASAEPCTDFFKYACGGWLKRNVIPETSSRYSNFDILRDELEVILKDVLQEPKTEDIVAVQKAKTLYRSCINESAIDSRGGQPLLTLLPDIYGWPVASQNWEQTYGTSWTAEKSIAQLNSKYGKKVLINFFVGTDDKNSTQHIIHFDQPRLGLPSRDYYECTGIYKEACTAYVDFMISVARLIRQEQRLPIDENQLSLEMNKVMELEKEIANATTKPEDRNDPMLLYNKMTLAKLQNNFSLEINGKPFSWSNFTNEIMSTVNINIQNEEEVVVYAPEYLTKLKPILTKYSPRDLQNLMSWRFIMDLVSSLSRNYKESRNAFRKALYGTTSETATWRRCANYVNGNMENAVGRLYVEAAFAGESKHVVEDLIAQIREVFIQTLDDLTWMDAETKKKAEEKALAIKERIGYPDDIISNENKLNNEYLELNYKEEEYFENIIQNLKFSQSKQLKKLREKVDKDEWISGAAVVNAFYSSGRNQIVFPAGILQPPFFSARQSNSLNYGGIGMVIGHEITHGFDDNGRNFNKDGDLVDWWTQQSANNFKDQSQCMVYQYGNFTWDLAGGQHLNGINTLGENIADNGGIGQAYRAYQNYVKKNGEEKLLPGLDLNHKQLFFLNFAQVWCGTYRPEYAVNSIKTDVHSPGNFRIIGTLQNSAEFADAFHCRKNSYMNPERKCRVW", "assay": "Assay of enkephalinase activity with tritiated enkephalin substrate (Llorens et al. 1982)", "type": "biochemical", "description": "As used herein, enkephalinase or enkephalinase derivatives refers to proteins which are enzymatically active or are immunologically cross-reactive with enzymatically active enkephalinase. Enzymatically functional enkephalinase is capable of cleaving the Gly^3 -Phe^4 amide bond of ^3 H-(DAla^2, Leu^5)enkephalin in an assay as described by Llorens et al. (1982).\n\"Essentially free from\" or \"essentially pure\" when used to describe the state of enkephalinase produced by the invention means free of protein or other materials normally associated with enkephalinase in its in vivo physiological milieu as for example when enkephalinase is obtained from blood and/or tissues by extraction and purification.\nEnkephalinase activity was measured as described by Llorens et al. (1982) using ^3 H-(DAla^2, Leu^5)enkephalin as a substrate. […]"}, "[2]": {"molecular_target": "T2, dansyl-Gly-Trp-Gly or dansyl-Gly-Tyr-Gly (Rattus norvegicus, UniProt P07861)", "T2 construct": "made in house; host or cells: human embryonic kidney (293) cells (pCISrENK); also rabbit reticulocyte lysate in vitro translation (prENKsense)", "T2 sequence (P07861 1-750)": "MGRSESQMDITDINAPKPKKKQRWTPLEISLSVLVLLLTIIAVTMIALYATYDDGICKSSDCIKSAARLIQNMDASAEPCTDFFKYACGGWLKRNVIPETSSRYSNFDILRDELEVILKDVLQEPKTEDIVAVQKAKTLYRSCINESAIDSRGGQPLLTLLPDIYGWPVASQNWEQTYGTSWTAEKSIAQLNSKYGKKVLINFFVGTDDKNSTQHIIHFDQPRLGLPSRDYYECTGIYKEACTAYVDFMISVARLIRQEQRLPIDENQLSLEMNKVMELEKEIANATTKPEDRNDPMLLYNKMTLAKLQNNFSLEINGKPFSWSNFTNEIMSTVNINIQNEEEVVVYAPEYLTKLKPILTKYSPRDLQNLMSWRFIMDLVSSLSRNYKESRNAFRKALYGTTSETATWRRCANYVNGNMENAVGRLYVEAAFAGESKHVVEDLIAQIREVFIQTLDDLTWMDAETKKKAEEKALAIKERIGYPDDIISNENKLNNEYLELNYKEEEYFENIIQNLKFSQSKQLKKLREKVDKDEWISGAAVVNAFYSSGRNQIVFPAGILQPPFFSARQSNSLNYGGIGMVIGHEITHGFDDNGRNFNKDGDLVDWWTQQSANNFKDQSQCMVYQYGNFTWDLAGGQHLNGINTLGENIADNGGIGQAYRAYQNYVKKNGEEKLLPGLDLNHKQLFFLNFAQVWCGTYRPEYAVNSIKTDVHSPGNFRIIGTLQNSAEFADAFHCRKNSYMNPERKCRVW", "assay": "Enkephalinase activity of expressed rat enkephalinase material", "type": "biochemical", "conditions": "rat enkephalinase cDNA expression products", "description": "An assay using novel fluorescent substrates for enkephalinase was developed to assess whether enkephalinase is expressed. This assay is based on the disappearance of energy transfer between a tryptophan or a tyrosine residue and the 5-dimethylaminonaphthalene-1-sulfonyl group (dansyl) in the substrates dansyl-Gly-Trp-Gly or dansyl-Gly-Tyr-Gly upon hydrolysis of their Gly-Trp or Gly-Tyr amide bond by enkephalinase. No significant difference in Km or kcat values were found for dansyl-Gly-Trp-Gly and dansyl-Gly-Tyr-Gly as the active site of enkephalinase appears to accommodate tryptophan residues similarly to tyrosine. The tryptophan and tyrosine containing substrates can be used for continuous recording of enkephalinase activity. […]\nFluorescence measurements were made using a Perkin Elmer, model 650-10S spectrofluorometer, equipped with a temperature controlled cell-holder, maintained at 37° C. […] The 600 μl mixture was transferred into a quartz cuvette, and fluorescence measured. […] The fluorescence in the incubation media could thus be related to the amounts of hydrolyzed substrates. […] Ten μl of purified rat kidney enkephalinase was added and the increase in tryptophan or tyrosine fluorescence was continuously monitored (excitation=280 nm, emission=360 nm for tryptophan, excitation 277, emission 315 for tyrosine). […] Under these conditions, tryptophan fluorescence was stable for over 2 hr."}},
  "data": [
    {"molecule": "rat kidney enkephalinase: enkephalinase purified from rat kidney, fractions from the last Concanavalin-A step, about 90 Kdalton protein (protein, UniProt P07861 2-750, looked up) Neprilysin: GRSESQMDITDINAPKPKKKQRWTPLEISLSVLVLLLTIIAVTMIALYATYDDGICKSSDCIKSAARLIQNMDASAEPCTDFFKYACGGWLKRNVIPETSSRYSNFDILRDELEVILKDVLQEPKTEDIVAVQKAKTLYRSCINESAIDSRGGQPLLTLLPDIYGWPVASQNWEQTYGTSWTAEKSIAQLNSKYGKKVLINFFVGTDDKNSTQHIIHFDQPRLGLPSRDYYECTGIYKEACTAYVDFMISVARLIRQEQRLPIDENQLSLEMNKVMELEKEIANATTKPEDRNDPMLLYNKMTLAKLQNNFSLEINGKPFSWSNFTNEIMSTVNINIQNEEEVVVYAPEYLTKLKPILTKYSPRDLQNLMSWRFIMDLVSSLSRNYKESRNAFRKALYGTTSETATWRRCANYVNGNMENAVGRLYVEAAFAGESKHVVEDLIAQIREVFIQTLDDLTWMDAETKKKAEEKALAIKERIGYPDDIISNENKLNNEYLELNYKEEEYFENIIQNLKFSQSKQLKKLREKVDKDEWISGAAVVNAFYSSGRNQIVFPAGILQPPFFSARQSNSLNYGGIGMVIGHEITHGFDDNGRNFNKDGDLVDWWTQQSANNFKDQSQCMVYQYGNFTWDLAGGQHLNGINTLGENIADNGGIGQAYRAYQNYVKKNGEEKLLPGLDLNHKQLFFLNFAQVWCGTYRPEYAVNSIKTDVHSPGNFRIIGTLQNSAEFADAFHCRKNSYMNPERKCRVW", "values": [
      {"measurement": "enkephalinase activity, specific activity", "setting": "[1]; six 1 ml fractions from the last Concanavalin-A step, measured at 25° C., ^3 H-(DAla^2, Leu^5)enkephalin as substrate", "result": 27.4, "unit": "nmole/mg protein/min"}
    ]},
    {"molecule": "Enkephalinase: Enkephalinase produced by the method of the instant invention, essentially pure (protein, UniProt P07861 2-750, looked up) Neprilysin: GRSESQMDITDINAPKPKKKQRWTPLEISLSVLVLLLTIIAVTMIALYATYDDGICKSSDCIKSAARLIQNMDASAEPCTDFFKYACGGWLKRNVIPETSSRYSNFDILRDELEVILKDVLQEPKTEDIVAVQKAKTLYRSCINESAIDSRGGQPLLTLLPDIYGWPVASQNWEQTYGTSWTAEKSIAQLNSKYGKKVLINFFVGTDDKNSTQHIIHFDQPRLGLPSRDYYECTGIYKEACTAYVDFMISVARLIRQEQRLPIDENQLSLEMNKVMELEKEIANATTKPEDRNDPMLLYNKMTLAKLQNNFSLEINGKPFSWSNFTNEIMSTVNINIQNEEEVVVYAPEYLTKLKPILTKYSPRDLQNLMSWRFIMDLVSSLSRNYKESRNAFRKALYGTTSETATWRRCANYVNGNMENAVGRLYVEAAFAGESKHVVEDLIAQIREVFIQTLDDLTWMDAETKKKAEEKALAIKERIGYPDDIISNENKLNNEYLELNYKEEEYFENIIQNLKFSQSKQLKKLREKVDKDEWISGAAVVNAFYSSGRNQIVFPAGILQPPFFSARQSNSLNYGGIGMVIGHEITHGFDDNGRNFNKDGDLVDWWTQQSANNFKDQSQCMVYQYGNFTWDLAGGQHLNGINTLGENIADNGGIGQAYRAYQNYVKKNGEEKLLPGLDLNHKQLFFLNFAQVWCGTYRPEYAVNSIKTDVHSPGNFRIIGTLQNSAEFADAFHCRKNSYMNPERKCRVW", "values": [
      {"measurement": "specific activity", "setting": "[1]; 20 nM ^3 H-(DAla^2, Leu^5)enkephalin as substrate, 25° C., 50 mM pH 7.4 HEPES buffer containing 0.02% Tween 20", "result": "at least 25 nmole/mg protein/min"}
    ]},
    {"molecule": "prENKsense: in vitro transcription/translation product of plasmid prENKsense (full length rat enkephalinase cDNA), rabbit reticulocyte lysate (protein, UniProt P07861 1-750, looked up, full-length in vitro translated, in vitro transcription/translation product of plasmid prENKsense (full length rat enkephalinase cDNA), rabbit reticulocyte lysate) MGRSESQMDITDINAPKPKKKQRWTPLEISLSVLVLLLTIIAVTMIALYATYDDGICKSSDCIKSAARLIQNMDASAEPCTDFFKYACGGWLKRNVIPETSSRYSNFDILRDELEVILKDVLQEPKTEDIVAVQKAKTLYRSCINESAIDSRGGQPLLTLLPDIYGWPVASQNWEQTYGTSWTAEKSIAQLNSKYGKKVLINFFVGTDDKNSTQHIIHFDQPRLGLPSRDYYECTGIYKEACTAYVDFMISVARLIRQEQRLPIDENQLSLEMNKVMELEKEIANATTKPEDRNDPMLLYNKMTLAKLQNNFSLEINGKPFSWSNFTNEIMSTVNINIQNEEEVVVYAPEYLTKLKPILTKYSPRDLQNLMSWRFIMDLVSSLSRNYKESRNAFRKALYGTTSETATWRRCANYVNGNMENAVGRLYVEAAFAGESKHVVEDLIAQIREVFIQTLDDLTWMDAETKKKAEEKALAIKERIGYPDDIISNENKLNNEYLELNYKEEEYFENIIQNLKFSQSKQLKKLREKVDKDEWISGAAVVNAFYSSGRNQIVFPAGILQPPFFSARQSNSLNYGGIGMVIGHEITHGFDDNGRNFNKDGDLVDWWTQQSANNFKDQSQCMVYQYGNFTWDLAGGQHLNGINTLGENIADNGGIGQAYRAYQNYVKKNGEEKLLPGLDLNHKQLFFLNFAQVWCGTYRPEYAVNSIKTDVHSPGNFRIIGTLQNSAEFADAFHCRKNSYMNPERKCRVW", "values": [
      {"measurement": "enkephalinase activity of expressed material", "setting": "[2]", "result": "did not have detectable activity"}
    ]}
  ]
}
